Test results reported in publication PMC10720262 (Cell Reports, 2023).
Residue numbers refer to the chain shown, from its start.

B1: CL-444739 (antibody, V domains shown)
VH: QVHLVESGGGVVQPGRSLRLSCVASGFSFSSYGMHWVRQAPGKGLEWVAIIWYDGSNRYYADSVQGRFTISRDNSKNTLYLQMNSLRAEDTAVYYCAKVGLSYNGRTGAFDVWGQGTMVTVSS
VL: not shown
B2: CL-444882 (antibody, V domains shown)
VH: B1 VH with V23A, A24T, R58K, Y59F, Q65K, K76E, N104S, V112I
VL: DIQMTQSPSTLSASVGDRVTITCRASQSISIWLAWYQQKPGKAPKLLIYKAASLESGVPSRISGSGSGTEFTLTISSLQPDDFATYYCQQYNSYWTFGQGTKVEIK
B3: CL-444906 (antibody, V domains shown)
VH: QVQLVESGGGVVQPGRSLRLSCTASGFTFSTYGMHWVRQAPGKGLEWVAIIWYDGSNKFYADSVKGRFTISRDNSKDTLYLQMNSLRAEDTAIYYCARAWDKVDDKYGMDVWGQGTTVTVSS
VL: not shown
B4: CL-445457 (antibody, V domains shown)
VH: QVQLVESGGAVVQPGTSLRLSCAASGFTFSNYGIHWVRQAPGKGLQWVALIWYNGNNKFYADSVQGRFTISRDNSKNILYLQINSLSAEDTAVYYCARAFYSDSGNYMDYWGQGALVTVSS
VL: DIQMTQSPSSVSASVGDRVTITCRARQDISSRLAWYQQKPGKAPKILIYGASSLQSGVPSRFSASGSGTDFTLTISSLQPEDVASYFCQQANSFPWTFGQGTKVEIK
B5: CL-445635 (antibody, V domains shown)
VH: B4 VH with I34M, D62E, Q65E, T69I, Y80F, I83M, S102Y, M108L, Q113P, A115S
VL: B4 VL with V83F, S85T, F87Y
B6: CL-445827 (antibody, V domains shown)
VH: QVQLVASGGGVVQPGRSLRLSCVASGFTFSFFGMHWVRQTPGRGLEWVAIIWYDGGHKFYADSVKGRFTISRDNSKDTLYLQMNSLRAEDTAVYYCARAEDNMARGNIDYSKYGMDVWGQGTTVTVSS
VL: B2 VL with A13V, V15I, I31T, A52S, S53N, I62F, E70D, S77G, N92F
B7: CL-445901 (antibody, V domains shown)
VH: QVQLVESGGGVVQPGRSLRLSCAASGFTFSNYGIHWVRQAPGKGLEWVALIWFNGNNKFYADSVEGRFTVSRDNSKNTLYLQLNSLRAEDTAVYYCARAYYFASGNYMDYWGQGTLVTVSS
VL: DIQMTQSPSSVSASMGDRVTITCRASQDISSSLAWYQQKPGKAPILLISFASSLHSGVPSRFSGSGSGTDFTLTISSLQPEDFATYSCQQANSFPWTFGQGTRVEVK
B8: CL-447376 (antibody, V domains shown)
VH: QVQLVESGGGVVQPGRSLRLSCAASGFNFNNYGMHWVRQAPVMGLEWVAIIWYDGSNKFYADSVKGRFTISRDNSQNTLFLQMNSLRAEDTGIYYCARSGGEMGNFDYWGQGTLVTVSS
VL: DIVMTQSPLSLPVTLGQPASISCRSSQSLVYSNGDTYLDWFQLRPGQSPRRLIYKVSHRDSGVPDRFSGSGSGTEFTLRISRVEAEDVGIYYCMQGTHYWTFGQGTEVEIK
B9: CL-447563 (antibody, V domains shown)
VH: QVQLVASGGGVVQPGRSLRLSCAASGFTFSNYGMHWVRQAPGKGLEWVAIIWYDGSKKYYSDSVKGRFTISRDNSKNTLYLQMNSLRAEDTAVYYCARAYGSGSYSDDYYGMDVWGQGTTVTVSS
VL: B2 VL with I31T, A52S, S53N, I62F, N92Y
B10: CL-447609 (antibody, V domains shown)
VH: QVQLVESGGGVVQPGRSLRLSCAASGFTFNNYGMHWVRQAPGKGLDWVAIIWFDGSNKYYADSVKGRFTISRDNSKNTLYLQMNSLRAEDTAVYYCARVGDHSKYRNRGDAFDIWGQGTMVTVSS
VL: B2 VL with I31S, A52S, I62F, F83S, Y87F, N92D
B11: CL-447703 (antibody, V domains shown)
VH: QVQLVESGGGVVQPGRSLRLSCEASGFTFSDHGMHWVRQGPGKGLEWVSIIWYDGSNKYYADSVKGRFTISRDNSKNTLYLEMNRLRAEDTALYYCARVWNHDDYKYSMDVWGQGTTVTVSS
VL: not shown
B12: CL-447737 (antibody, V domains shown)
VH: QVQLVESGGGVVQPGRSLRLSCAASGFTFSSYGMHWVRQAPGKGLEWVAIIWFDGSNIFYEDSVKGRFTISRDNSKNTLYLQMNSLRAEDTAVYYCAKVWNYDSDYYSMDVWGQGTTVTVSS
VL: not shown
B13: CL-449007 (antibody, V domains shown)
VH: QVQVVESGGGVVQPGRSLRLSCAASGFTFSNYGMHWVRQAPGKGLEWVAIIWYDGSHKFYANSVKGRFTISRDNSKNTLFLQMNSLRAEDTAVYYCARVGNGNSDWTDAFDIWGQGTMVTVSS
VL: B2 VL with S30N, I31S, A52S, I62F, S93T
B14: CL-449724 (antibody, V domains shown)
VH: QVHLVASGGGVVQPGRSLRLSCEVTGFTFSSYGMHWVRQDPGRGLEWVAIIWYDGSNKFYADSVKGRFTISRDNSKNTLYLQMNSLRAEDTAVYYCARSYGILTGYQTKYGMDVWGQGTTVTVSS
VL: not shown
B15: CL-449759 (antibody, V domains shown)
VH: QVHLVESGGGVVQPGESQRLSCAASGFTFSNYGMHWVRQAPGKGLEWVALIWYDGSNKFYADSVKGRFTISRDNSKNTLYLHMNSLRAEDTAMYYCAKVPNWNDDKYTMDVWGQGTTVTVTS
VL: not shown
B16: CL-449849 (antibody, V domains shown)
VH: QVQLVESGGGAVQAGTSLRLSCAASGFTFSYNGMHWVRQGPGKGLEWVAIIWYDGGNKFYADSVKGRFTISRDNSKNMLYLQMNRLRAEDTAVYYCARAWNFADNKYSMDVWGQGTTVTVSS
VL: B2 VL with I31S, K45Q, A52S, I62F, N92Y, S93I, E104D
B17: CL-449869 (antibody, V domains shown)
VH: B3 VH with V11A, T23A, T31Y, Y32N, Q82E, D101N, K102Y, V103D, D105K, G108S
VL: B2 VL with I31S, A52S, I62F, S93Y, Y94F, K106R
B18: CL-450034 (antibody, V domains shown)
VH: B16 VH with F102Y, N105S
VL: not shown
B19: CL-453181 (antibody, V domains shown)
VH: QVQLVESGGGVVQPGRSLRLSCAASGFTFSYYGMHWVRQAPGKGLEWVSIIWYDGSNKFYADSVKGRFTISRDNSKDTLYLEMNSLRAEDTAVYYCARVEFYNGSGRDFYYGLDVWGQGTTVTVSS
VL: EIVMTQSPATLSVSPGEGATLSCRASQSVSSNLAWYQQKPGQAPRLLISGASTRATGVPARFSGSGSGTEFALTISSLQSEDFAVYYCQQYSKLWTFGQGTKVEIK

Target: recombinant full-length PfCSP (Plasmodium falciparum circumsporozoite protein, strain NF54) (Plasmodium falciparum NF54, UniProt P19597)
Sequence (P19597 20-375): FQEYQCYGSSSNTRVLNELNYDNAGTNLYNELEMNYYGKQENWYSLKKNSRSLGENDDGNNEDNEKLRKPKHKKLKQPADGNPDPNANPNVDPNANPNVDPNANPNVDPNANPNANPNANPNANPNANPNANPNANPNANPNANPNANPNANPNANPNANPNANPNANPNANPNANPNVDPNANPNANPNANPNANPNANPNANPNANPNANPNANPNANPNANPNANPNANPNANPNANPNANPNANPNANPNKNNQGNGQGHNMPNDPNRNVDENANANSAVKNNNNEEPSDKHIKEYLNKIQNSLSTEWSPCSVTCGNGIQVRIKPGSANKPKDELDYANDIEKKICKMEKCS

Binder | binding result
B1 | binds
B2 | binds
B3 | binds
B4 | binds
B5 | binds
B6 | binds
B7 | binds
B8 | binds
B9 | binds
B10 | binds
B11 | binds
B12 | binds
B13 | binds
B14 | binds
B15 | binds
B16 | binds
B17 | binds
B18 | binds
B19 | binds
